# Laboratory results as given in patent US20120263722A1 (AbbVie / Abbott, published 2012).
# T1: Recombinant Human PIGF (human, UniProt P49763-2 21-149, limits assumed)
# T1 construct: Bought reagent used in the Biacore analyses; also called PlGF; placental growth factor
# T1 sequence (looked up): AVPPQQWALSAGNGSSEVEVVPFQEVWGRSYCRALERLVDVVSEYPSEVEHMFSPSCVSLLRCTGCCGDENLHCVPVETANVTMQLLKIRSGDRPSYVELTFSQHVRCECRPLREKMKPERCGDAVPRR
# Experiments:
# EGFR on the cell surface = molecular target: T2, EGFR on the cell surface (human, UniProt P00533 25-1210); test: flow cytometry on cells carrying the target, antibody or DVD-Ig at 2 ug/mL
# T2 construct: whole, on cells; also called epidermal growth factor receptor
# Description: Binding of monoclonal antibodies to the surface of human tumor cell fines was assessed by flow cytometry. For example, stable cell lines overexpressing a cell-surface antigen of interest or human tumor cell lines were harvested from tissue culture flasks and resuspended in phosphate buffered saline (PBS) containing 5% fetal bovine serum (PBS/FBS). Prior to staining, human tumor cells were incubated on ice with (100 μl) human IgG at 5 μg/ml in PBS/FCS. 1-5×10⁵ cells were incubated with antibody or DVD-Ig (2 μg/mL) in PBS/FBS for 30-60 minutes on ice. […] After 30 minutes incubation on ice, cells were washed twice and resuspended in PBS/PBS. Fluorescence was measured using a Becton Dickinson FACSCalibur (Becton Dickinson, San Jose, Calif.).
# The geometric mean is the n root of the multiplication product of n fluorescent signals (a1×a2×a3 . . . an). With log-transformed data the geometric mean is used to normalize the weighting of the data distribution.
# Recombinant Human PIGF = molecular target: T1, Recombinant Human PIGF; test: SPR (BIACORE), N-terminal variable domain to target antigen
# Description: (§1) The BIACORE assay (Biacore, Inc, Piscataway, N.J.) determines the affinity of antibodies or DVD-Ig with kinetic measurements of on-rate and off-rate constants. Binding of antibodies or DVD-Ig to a target antigen (for example, a purified recombinant target antigen) was determined by surface plasmon resonance-based measurements with a Biacore® 1000 or 3000 instrument (Biacore® AB. Uppsala, Sweden) using running HBS-EP (10 mM HEPES [pH 7.4], 150 mM NaCl, 3 mM EDTA, and 0.005% surfactant P20) at 25° C. All chemicals were obtained from Biacore® AB (Uppsala, Sweden) or otherwise from a different source as described in the text.
# (§2) For example, approximately 5000 RU of goat anti-mouse IgG, (Fcγ), fragment specific polyclonal antibody (Pierce Biotechnology Inc, Rockford, Ill.) diluted in 10 mM sodium acetate (pH 4.5) is directly immobilized across a CMS research grade biosensor chip using a standard amine coupling kit according to manufacturer's instructions and procedures at 25 μg/ml. Unreacted moieties on the biosensor surface are blocked with ethanolamine. Modified carboxymethyl dextran surface in flowcell 2 and 4 is used as a reaction surface. Unmodified carboxymethyl dextran without goat anti-mouse. IgG in flow cell 1 and 3 is used as the reference surface. For kinetic analysis, rate equations derived from the 1:1 Langmuir binding model are fitted simultaneously to association and dissociation phases of all eight injections (using global fit analysis) with the use of Biaevaluation 4.0.1 software. Purified antibodies or DVD-Ig are diluted in HEPES-buffered saline for capture across goat anti-mouse IgG specific reaction surfaces. Antibodies or DVD-Ig, to be captured as a ligand (25 μg/ml) are injected over reaction matrices at a flow rate of 5 μl/min. The association and dissociation rate constants, kₒₙ(M⁻¹s⁻¹) and koff (s⁻¹) are determined under a continuous flow rate of 25 μl/min. Rate constants are derived by making kinetic binding measurements at different antigen concentrations ranging from 10-200 nM. The equilibrium dissociation constant (M) of the reaction between antibodies or DVD-Igs and the target antigen is then calculated from the kinetic rate constants by the following formula: KD=koff/Kₒₙ. Binding is recorded as a function of time and kinetic rate constants are calculated.
# ErbB3 = molecular target: T3, ErbB3 (UniProt P21860 20-643, limits assumed); test: as above
# T3 construct: also called v-erb-b2 avian erythroblastic leukemia viral oncogene homolog 3
# Description: as §1, §2
# Recombinant Human DLL4 = molecular target: T4, Recombinant Human DLL4 (human, UniProt Q9NR61 27-524); test: as above
# T4 construct: Bought reagent used in the Biacore analyses; also called Delta-like ligand 4
# T4 sequence (Q9NR61 27-524 limits assumed): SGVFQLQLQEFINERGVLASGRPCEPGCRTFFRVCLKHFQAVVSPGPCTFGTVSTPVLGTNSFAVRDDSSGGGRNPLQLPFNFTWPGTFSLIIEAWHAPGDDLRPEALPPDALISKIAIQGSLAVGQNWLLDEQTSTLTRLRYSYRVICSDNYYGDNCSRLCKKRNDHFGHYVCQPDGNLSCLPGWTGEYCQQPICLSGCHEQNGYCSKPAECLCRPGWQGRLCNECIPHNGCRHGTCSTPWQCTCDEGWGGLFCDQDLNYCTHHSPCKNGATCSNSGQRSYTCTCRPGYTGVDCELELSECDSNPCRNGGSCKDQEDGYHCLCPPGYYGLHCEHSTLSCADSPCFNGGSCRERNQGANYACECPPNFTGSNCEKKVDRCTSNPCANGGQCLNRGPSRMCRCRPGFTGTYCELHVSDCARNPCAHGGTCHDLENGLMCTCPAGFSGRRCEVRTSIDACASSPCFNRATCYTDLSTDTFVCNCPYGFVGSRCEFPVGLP
# Description: as §1, §2
# [1] = molecular target: T5, Recombinant Human MSP R/RON (human, UniProt Q04912 25-571, limits assumed); test: as above
# T5 construct: Bought reagent used in the Biacore analyses; also called macrophage stimulating protein receptor tyrosine kinase
# Description: as §1, §2
# [2] = molecular target: T6, Recombinant Human VEGF 165 (human, UniProt P15692-4 27-191); test: as above
# T6 construct: Bought reagent used in the Biacore analyses; also called vascular endothelial growth factor
# T6 sequence (P15692 other isoform, or with tags, fused parts or gaps limits assumed): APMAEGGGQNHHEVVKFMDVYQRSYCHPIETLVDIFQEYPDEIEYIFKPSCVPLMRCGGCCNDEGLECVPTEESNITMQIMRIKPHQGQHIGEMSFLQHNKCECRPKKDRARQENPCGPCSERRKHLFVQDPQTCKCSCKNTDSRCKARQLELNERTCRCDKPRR
# Description: as §1, §2
binder,measurement,setting,value
"DVD1907 (bispecific antibody, human IgG1, kappa, also called DVD1907H; DVD1907L) heavy: not shown light: DIQMTQSPSSMSVSVGDRVTITCHSSQDINSNIGWLQQKPGKSFKGLIYHGTNLDDGVPSRFSGSGSGTDYTLTISSLQPEDFATYYCVQYAQFPWTFGGGTKLEIKRTVAAPQIVLIQSPAIMSASPGEKVTMTCSASSSVSYMYWYQQKPGSSPRLLIYDTSNLASGVPVRFSGSGSGTSYSLTISRMEAEDAATYYCQQWSGYPYTFGGGTKLEIKRTVAAPSVFIFPPSDEQLKSGTASVVCLLNNFYPREAKVQWKVDNALQSGNSQESVTEQDSKDSTYSLSSTLTLSKADYEKHKVYACEVTHQGLSSPVTKSFNRGEC",N-Terminal VD GEO MEAN (FACS geometric mean),EGFR on the cell surface,23.5
"DVD1869 (bispecific antibody, human IgG1, kappa, Outer domain anti-PlGF (AB047), inner domain anti-IL-6 (AB040); also called DVD1869H; DVD1869L) heavy: not shown light: DIVLTQSPDSLAVSLGERVTMNCKSSQSLLNSGMRKSFLAWYQQKPGQSPKLLIYWASTRESGVPDRFTGSGSGTDFTLTISSVQAEDVAVYYCKQSYHLFTFGSGTKLEIKRTVAAPQIVLIQSPAIMSASPGEKVTMTCSASSSVSYMYWYQQKPGSSPRLLIYDTSNLASGVPVRFSGSGSGTSYSLTISRMEAEDAATYYCQQWSGYPYTFGGGTKLEIKRTVAAPSVFIFPPSDEQLKSGTASVVCLLNNFYPREAKVQWKVDNALQSGNSQESVTEQDSKDSTYSLSSTLTLSKADYEKHKVYACEVTHQGLSSPVTKSFNRGEC",Kd,Recombinant Human PIGF,0.02 nM
same,koff,Recombinant Human PIGF,0.00011 s⁻¹
same,kon,Recombinant Human PIGF,5.6e+06 M⁻¹ s⁻¹
"DVD1899 (bispecific antibody, human IgG1, kappa, also called DVD1899H; DVD1899L) heavy: not shown light: QSALTQPASVSGSPGQSITISCTGTSSDVGSYNVVSWYQQHPGKAPKLIIYEVSQRPSGVSNRFSGSKSGNTASLTISGLQTEDEADYYCCSYAGSSIFVIFGGGTKVTVLGQPKAAPQIVLIQSPAIMSASPGEKVTMTCSASSSVSYMYWYQQKPGSSPRLLIYDTSNLASGVPVRFSGSGSGTSYSLTISRMEAEDAATYYCQQWSGYPYTFGGGTKLEIKRTVAAPSVFIFPPSDEQLKSGTASVVCLLNNFYPREAKVQWKVDNALQSGNSQESVTEQDSKDSTYSLSSTLTLSKADYEKHKVYACEVTHQGLSSPVTKSFNRGEC",Kd,ErbB3,6.7 nM
same,koff,ErbB3,0.00026 s⁻¹
same,kon,ErbB3,38000 M⁻¹ s⁻¹
"DVD1867 (bispecific antibody, human IgG1, kappa, Outer domain anti-DLL4 (AB015), inner domain anti-IL-6 (AB040); also called DVD1867H; DVD1867L) heavy: not shown light: DIQMTQSPSSLSASVGDRVTITCRASQDVSTAVAWYQQKPGKAPKLLIYSASFLYSGVPSRFSGSGSGTDFTLTISSLQPEDFATTYYCQQSYTGTVTFGQGTKVEIKRTVAAPQIVLIQSPAIMSASPGEKVTMTCSASSSVSYMYWYQQKPGSSPRLLIYDTSNLASGVPVRFSGSGSGTSYSLTISRMEAEDAATYYCQQWSGYPYTFGGGTKLEIKRTVAAPSVFIFPPSDEQLKSGTASVVCLLNNFYPREAKVQWKVDNALQSGNSQESVTEQDSKDSTYSLSSTLTLSKADYEKHKVYACEVTHQGLSSPVTKSFNRGEC",Kd,Recombinant Human DLL4,0.49 nM
same,koff,Recombinant Human DLL4,0.00022 s⁻¹
same,kon,Recombinant Human DLL4,460000 M⁻¹ s⁻¹
"DVD1855 (bispecific antibody, human IgG1, kappa, also called DVD1855H; DVD1855L) heavy: not shown light: DIEMTQSPDSLAVSLGERATINCRSSQSVLYSSSNRNYLAWYQQNPGQPPKLLIYWASTRESGVPDRFSGSGSGTDFTLTISSLQAEDVAVYYCQQYYSTPRTFGQGTKVEIKRTVAAPQIVLIQSPAIMSASPGEKVTMTCSASSSVSYMYWYQQKPGSSPRLLIYDTSNLASGVPVRFSGSGSGTSYSLTISRMEAEDAATYYCQQWSGYPYTFGGGTKLEIKRTVAAPSVFIFPPSDEQLKSGTASVVCLLNNFYPREAKVQWKVDNALQSGNSQESVTEQDSKDSTYSLSSTLTLSKADYEKHKVYACEVTHQGLSSPVTKSFNRGEC",Kd,ErbB3,3.7 nM
same,koff,ErbB3,0.00038 s⁻¹
same,kon,ErbB3,100000 M⁻¹ s⁻¹
"DVD1875 (bispecific antibody, human IgG1, kappa, also called DVD1875H; DVD1875L) heavy: not shown light: DIQMTQSPSSLSASVGDRVTITCQASQDISNYLNWYQQKPGKAPKLLIYDASNLETGVPSRFSGSGSGTDFTFTISSLQPEDIATYFCQHFDHLPLAFGGGTKVEIKRTVAAPQIVLIQSPAIMSASPGEKVTMTCSASSSVSYMYWYQQKPGSSPRLLIYDTSNLASGVPVRFSGSGSGTSYSLTISRMEAEDAATYYCQQWSGYPYTFGGGTKLEIKRTVAAPSVFIFPPSDEQLKSGTASVVCLLNNFYPREAKVQWKVDNALQSGNSQESVTEQDSKDSTYSLSSTLTLSKADYEKHKVYACEVTHQGLSSPVTKSFNRGEC",N-Terminal VD GEO MEAN (FACS geometric mean),EGFR on the cell surface,717
"DVD1871 (bispecific antibody, human IgG1, kappa, also called DVD1871H; DVD1871L) heavy: not shown light: QAVLTQPSSLSAPPGASASLTCTLRSGFNVDSYRISWYQQKPGSPPQYLLRYKSDSDKQQGSGVPSRFSGSKDASANAGILLISGLQSEDEADYYCMIWHSSAWVFGGGTKLTVLRTVAAPQIVLIQSPAIMSASPGEKVTMTCSASSSVSYMYWYQQKPGSSPRLLIYDTSNLASGVPVRFSGSGSGTSYSLTISRMEAEDAATYYCQQWSGYPYTFGGGTKLEIKRTVAAPSVFIFPPSDEQLKSGTASVVCLLNNFYPREAKVQWKVDNALQSGNSQESVTEQDSKDSTYSLSSTLTLSKADYEKHKVYACEVTHQGLSSPVTKSFNRGEC",Kd,[1],> 1 nM
same,koff,[1],> 0.01 s⁻¹
same,kon,[1],> 1e+07 M⁻¹ s⁻¹
"DVD1865 (bispecific antibody, human IgG1, kappa, also called DVD1865H; DVD1865L) heavy: not shown light: DIQMTQSPSSLSASVGDRVTITCSASQDISNYLNWYQQKPGKAPKVLIYFTSSLHSGVPSRFSGSGSGTDFTLTISSLQPEDFATYYCQQYSTVPWTFGQGTKVEIKRTVAAPQIVLIQSPAIMSASPGEKVTMTCSASSSVSYMYWYQQKPGSSPRLLIYDTSNLASGVPVRFSGSGSGTSYSLTISRMEAEDAATYYCQQWSGYPYTFGGGTKLEIKRTVAAPSVFIFPPSDEQLKSGTASVVCLLNNFYPREAKVQWKVDNALQSGNSQESVTEQDSKDSTYSLSSTLTLSKADYEKHKVYACEVTHQGLSSPVTKSFNRGEC",Kd,[2],< 0.002 nM
same,koff,[2],< 1e-06 s⁻¹
same,kon,[2],640000 M⁻¹ s⁻¹
"DVD1901 (bispecific antibody, human IgG1, kappa, also called DVD1901H; DVD1901L) heavy: not shown light: DIQMTQSPSSLSASVGDRVTITCRASQDVSTAVAWYQQKPGKAPKLLIYSASFLYSGVPSRFSGSGSGTDFTLTISSLQPEDFATYYCQQSYTTPPTFGQGTKVEIKRTVAAPQIVLIQSPAIMSASPGEKVTMTCSASSSVSYMYWYQQKPGSSPRLLIYDTSNLASGVPVRFSGSGSGTSYSLTISRMEAEDAATYYCQQWSGYPYTFGGGTKLEIKRTVAAPSVFIFPPSDEQLKSGTASVVCLLNNFYPREAKVQWKVDNALQSGNSQESVTEQDSKDSTYSLSSTLTLSKADYEKHKVYACEVTHQGLSSPVTKSFNRGEC",Kd,[2],0.16 nM
same,koff,[2],9.3e-05 s⁻¹
same,kon,[2],580000 M⁻¹ s⁻¹
"DVD1853 (bispecific antibody, human IgG1, kappa, also called DVD1853H; DVD1853L) heavy: not shown light: DVVMTQSPLSLPVTPGEPASISCRSSQSLLHSNGFNYVDWYLQKPGQSPHLLIYFGSYRASGVPDRFSGSGSGTDFTLKISRVEAEDVGVYYCMQALQTPPWTFGQGTKVEIRRTVAAPQIVLIQSPAIMSASPGEKVTMTCSASSSVSYMYWYQQKPGSSPRLLIYDTSNLASGVPVRFSGSGSGTSYSLTISRMEAEDAATYYCQQWSGYPYTFGGGTKLEIKRTVAAPSVFIFPPSDEQLKSGTASVVCLLNNFYPREAKVQWKVDNALQSGNSQESVTEQDSKDSTYSLSSTLTLSKADYEKHKVYACEVTHQGLSSPVTKSFNRGEC",Kd,[1],15 nM
same,koff,[1],0.00085 s⁻¹
same,kon,[1],58000 M⁻¹ s⁻¹
"DVD1857 (bispecific antibody, human IgG1, kappa, also called DVD1857H; DVD1857L) heavy: not shown light: DIQMTQSPSSLSASVGDRVTITCQASQDITNYLNWYQQKPGKAPKLLIYDASNLETGVPSRFSGSGSGTDFTFTISSLQPEDIATYNCQQCENFPITFGQGTRLEIKRTVAAPQIVLIQSPAIMSASPGEKVTMTCSASSSVSYMYWYQQKPGSSPRLLIYDTSNLASGVPVRFSGSGSGTSYSLTISRMEAEDAATYYCQQWSGYPYTFGGGTKLEIKRTVAAPSVFIFPPSDEQLKSGTASVVCLLNNFYPREAKVQWKVDNALQSGNSQESVTEQDSKDSTYSLSSTLTLSKADYEKHKVYACEVTHQGLSSPVTKSFNRGEC",Kd,ErbB3,0.12 nM
same,koff,ErbB3,0.00015 s⁻¹
same,kon,ErbB3,1.2e+06 M⁻¹ s⁻¹
